According to US20220332804A1 (CSL INNOVATION, published 2022):
Positions count from the first letter of the chain named.

What was measured:
Test in all cases: SPR, antibody captured, C2 as analyte;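 note: biacore at 37 °C, anti-C2 mAbs held by immobilised goat anti-human IgG, C2 alanine or serine mutants injected, double-referenced sensorgrams fitted to a 1:1 kinetic or steady-state model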
human C2 E324A = target: T1, human C2 E324A (human, UniProt P06681 21-752)
T1 sequence: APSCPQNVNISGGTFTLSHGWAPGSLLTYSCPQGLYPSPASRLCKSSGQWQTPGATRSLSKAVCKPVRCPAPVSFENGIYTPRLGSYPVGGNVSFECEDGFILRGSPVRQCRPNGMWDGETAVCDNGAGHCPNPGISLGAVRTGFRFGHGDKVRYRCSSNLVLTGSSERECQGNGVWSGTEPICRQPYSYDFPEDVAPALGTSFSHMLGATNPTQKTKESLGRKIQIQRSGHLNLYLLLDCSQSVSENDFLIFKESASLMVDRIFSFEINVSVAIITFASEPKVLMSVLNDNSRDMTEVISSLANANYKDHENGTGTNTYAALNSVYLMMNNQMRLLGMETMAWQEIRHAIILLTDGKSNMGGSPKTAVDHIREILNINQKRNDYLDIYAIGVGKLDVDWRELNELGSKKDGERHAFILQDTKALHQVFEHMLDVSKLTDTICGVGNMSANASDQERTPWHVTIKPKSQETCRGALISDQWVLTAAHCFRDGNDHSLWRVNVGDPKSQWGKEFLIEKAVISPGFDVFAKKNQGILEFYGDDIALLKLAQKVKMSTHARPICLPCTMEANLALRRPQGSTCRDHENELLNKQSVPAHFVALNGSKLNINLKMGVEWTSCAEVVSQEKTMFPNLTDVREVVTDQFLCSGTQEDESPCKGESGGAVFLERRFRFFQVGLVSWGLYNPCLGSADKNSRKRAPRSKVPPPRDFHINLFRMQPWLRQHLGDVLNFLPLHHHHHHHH

human C2 K329A = target: T2, human C2 K329A (human, UniProt P06681 21-752)
T2 sequence: T1 sequence with A304E, K309A

human C2 R493A = target: T3, human C2 R493A (human, UniProt P06681 21-752)
T3 sequence: T1 sequence with A304E, R473A

human C2 L271A = target: T4, human C2 L271A (human, UniProt P06681 21-752)
T4 sequence: T1 sequence with L251A, A304E

B1: RF16-242 (antibody, human IgG4 S228P, lambda, V domains shown)
VH: EVQLLQSGAEVKKPGESLKISCKGSGYSFTSYWIGWVRQMPGKGLEWMGIIYPGDSDTRYSPSFQGQVTISADKSISTAYLQWSSLKASDTAMYYCARRGHYGDYFDYWGQGTLVTVSS
VL: SYELTQPPSVSVSPGQTARITCSGDALPKKYAYWYHQKSGQAPVLVIYEDRRRPSEIPERFSGSSSGTMATLTITGAQVEDEGVYFCYSRDRAGNQRVFGGGTQLTVLG
notes: pH-dependent anti-C2 antibody from a phage display library
**Q.** What does the source list for B1?
**A.** Kd (human C2 E324A): 10.7 nM; Kd (human C2 K329A): 14.8 nM; Kd (human C2 R493A): 7.2 nM; Kd (human C2 L271A): 6.9 nM
